Source: paper PMC10184318, “The fission yeast cytokinetic ring component Fic1 promotes septum formation” (Biology Open, 2023)

B1: Fic1-MBP [S. pombe] / Cyk3-SH3-GST (aa1-66) [S. pombe] (parent complex)
chain 1: MSKNPLGTLVVRIWKAKNLPNKALVGKQSPYCVCRVGEVVKRTQTDKRSGQEPSWNAVLEFNIPSESYHIMKITVFHEGFRKHPHLIGDTVLSFEKAMKEELQSEWYELKNEFQFAGELSVQFKFIPTDPLYFDRASSKPVLQFPYSSVAALTPVPKKPSKPSKPRKKVPVSHPLPPTPPSREEHVSVPRESSLFTYEDDPLPSFPSPYMVDDYYTQDVFVSDNVNDYSYGVQNPTNPRLSVEDYDANHSSLPPVPPPHLILPTASSSQIFH
chain 2: MSIPKQLPCMVRALYAWPGEREGDLKFTEGDLIECLSIGDGKWWIGRHINTNTQGIFPSNFVHCLD

Variants of: B1
Assay: in vitro binding assay (GST pull-down, Coomassie Blue-stained SDS-PAGE, band quantification); parent: 1; read off a plot

| response [A.U.] | Variant |
| --- | --- |
| ~0.35 | chain 1 MSKNPLGTLVVRIWKAKNLPNKALVGKQSPYCVCRVGEVVKRTQTDKRSGQEPSWNAVLEFNIPSESYHIMKITVFHEGFRKHPHLIGDTVLSFEKAMKEELQSEWYELKNEFQFAGELSVQFKFIPTDPLYFDRASSKPVLQFPYSSVAALTPVPKKPSKPSKPRKKVPVSHALPATPPSREEHVSVPRESSLFTYEDDPLPSFPSPYMVDDYYTQDVFVSDNVNDYSYGVQNPTNPRLSVEDYDANHSSLPPVPPPHLILPTASSSQIFH [chain 1 P174A, chain 1 P177A] |
| ~0.19 | chain 1 MSKNPLGTLVVRIWKAKNLPNKALVGKQSPYCVCRVGEVVKRTQTDKRSGQEPSWNAVLEFNIPSESYHIMKITVFHEGFRKHPHLIGDTVLSFEKAMKEELQSEWYELKNEFQFAGELSVQFKFIPTDPLYFDRASSKPVLQFPYSSVAALTPVPKKPSKPSKPRKKVPVSHPLAPTAPSREEHVSVPRESSLFTYEDDPLPSFPSPYMVDDYYTQDVFVSDNVNDYSYGVQNPTNPRLSVEDYDANHSSLPPVPPPHLILPTASSSQIFH [chain 1 P176A, chain 1 P179A] |
